B1: ACBD3 (parent)
chain: YVASHKIEKEEQEKKRKEEEERRR
B2: ATL3 (parent)
chain: FSFRYQQELEEEIKELYENFCKHN

Variants of: B1
Experiment: protein stability index of a GFP-peptide fusion (GPS, HEK-293T) (PSI 1-6); higher = more stable
Conditions: c terminus: a fixed tail appended
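Further: lentivirally expressed fusions sorted by FACS into six bins by GFP to DsRed ratio, PSI derived from sequencing read proportions per bin multiplied by bin number.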

Protein stability index of substitutions, site by site:
E19: Y 2.38
E20: A 2.81, C 3.17, D 2.63, F 2.5, G 1.96, H 2.39, I 2.58, K 2.83, L 1.71, M 2.48, N 2.56, P 1.98, Q 2.36, R 1.91, S 2.62, T 2.57, V 1.82, Y 1.58
E21: A 1.54, C 2.21, D 2.25, F 2.45, G 2.03, H 3.13, I 2.57, K 2.35, L 2.28, M 2.04, N 2.07, P 2.35, Q 2.37, R 2.04, S 2.52, T 2.38, V 3.05, W 2.67, Y 2.15
R22: A 2.45, C 2.69, D 3.24, E 3.02, F 2.5, G 2.68, H 2.42, I 3.59, K 2.69, L 1.89, M 2.76, N 3.14, P 2.72, Q 3.11, S 2.99, T 3.28, V 2.89, W 2.28, Y 2.87
R23: A 2.85, C 2.44, D 3.16, E 3.35, F 2.82, G 3.03, H 2.29, I 2.65, K 2.74, L 2.7, M 2.24, N 2.74, P 2.46, Q 2.71, S 2.47, T 3.43, V 2.65, W 2.02, Y 2.64
R24: A 2.94, C 2.83, D 3.35, E 2.19, F 2.85, G 2.54, H 3.01, I 2.52, K 2.65, L 2.75, M 2.65, N 3.67, P 2.04, Q 3.12, S 2.7, T 2.27, V 3.46, W 2.63, Y 2.42

Variants of: B2
Experiment: as above
Conditions: c terminus: a fixed tail appended

Protein stability index of substitutions, site by site:
F1: A 2.78, C 3.11, D 3.8, E 4.04, G 3.93, H 3.35, I 2.46, K 3.01, L 3.32, M 2.03, N 3.74, P 3.43, Q 3.11, R 1.95, S 3.89, T 3.87, V 2.54, W 1.95, Y 2.33
S2: A 2.51, C 3.27, D 2.93, E 2.52, F 1.75, G 2.53, H 2.29, I 1.7, K 2.58, L 1.85, M 1.52, N 2.37, P 2.63, Q 2.6, R 2.62, T 2.36, V 1.65, W 1.8, Y 2.73
F3: A 2.93, C 2.59, D 3.14, E 3.04, G 3.15, H 3.23, I 2.52, K 2.09, L 2.7, M 2.96, N 2.85, P 3.79, Q 4.39, R 2.83, S 2.79, T 3.23, V 2.51, W 2.82, Y 2.01
R4: A 2.05, C 2.23, D 3.13, E 2.63, F 2.45, G 2.88, H 2.9, I 1.87, K 2.33, L 2.09, M 1.96, N 2.96, P 2.87, Q 2.82, S 2.1, T 2.02, V 2.36, W 1.61, Y 2.11
Y5: A 3.51, C 2.44, D 3.55, E 3.07, F 2.5, H 2.84, I 2.77, K 2.93, L 2.13, M 3.4, N 3.29, P 3.45, Q 2.63, R 3.56, S 3.35, T 3.09, V 1.93, W 2.21
Q6: A 2.21, C 2.38, D 2.35, E 2.16, F 2.1, G 2.67, H 2.03, I 1.57, K 2.26, L 2.19, M 2.08, N 2.06, P 2.09, R 2.03, S 2, T 2.04, V 2.11, W 1.51, Y 2.24
Q7: A 2.04, C 2.15, D 2.35, E 2.64, F 1.65, G 3.13, H 2.2, I 1.75, K 2.46, L 1.92, M 2.39, N 2.51, P 3.07, R 2.3, S 2.24, T 2.59, V 2.17, W 1.84, Y 2.91
E8: A 1.91, C 2.11, F 1.89, G 2.68, H 2.27, I 1.72, K 1.69, L 2.1, M 1.97, N 2.44, P 2.02, Q 2.02, R 1.65, S 1.89, T 1.79, V 1.46, W 2.09, Y 1.79
L9: A 2.6, C 3.22, D 3.2, E 2.11, F 2.16, G 2.75, H 3.64, I 2.5, K 2.68, M 2.65, N 2.81, P 2.63, Q 3.09, R 3.33, S 2.41, T 3.48, V 2.11, W 2.66, Y 2.24
E10: A 2.02, C 1.77, D 3.31, F 2.06, G 1.9, H 1.81, I 1.46, K 2.2, L 1.6, M 1.75, N 2.13, P 2.61, Q 2, R 1.78, S 2.23, T 2.37, V 1.47, W 2.02, Y 1.75
E11: A 2.76, C 1.61, D 2.38, F 1.45, G 2.21, H 2.29, I 2.11, K 2.55, L 1.58, M 2.37, N 2.69, P 2.25, Q 2.18, R 1.98, S 2.58, T 2.74, V 1.53, W 1.8, Y 1.6
E12: A 1.97, C 1.76, D 2.84, F 1.91, G 2.1, H 2.29, I 2.07, K 2.27, L 2.74, M 1.76, N 2.09, P 2.17, Q 2.53, R 1.76, S 2.03, T 1.79, V 2.08, W 2.04, Y 2.06
I13: A 2.31, C 3.79, D 2.69, E 2.9, F 2.66, G 2.29, H 2.82, K 2.79, L 1.99, M 2.65, N 2.46, P 2.45, Q 2.19

Source: the supplement of paper PMC10567573
